Measured values reported in paper PMC3608507 (Molecular Biology of the Cell, 2013).
Where two headings read alike, the source gives them in different places. Values belong to the binder of their own block, whether it stands above or below them.

Legend:
Experiment in all cases: ELISA
His-lasp-2 (full-length) [1] = biological target: T1, His-lasp-2 (full-length) (UniProt Q9DC07 1-270)
T1 sequence: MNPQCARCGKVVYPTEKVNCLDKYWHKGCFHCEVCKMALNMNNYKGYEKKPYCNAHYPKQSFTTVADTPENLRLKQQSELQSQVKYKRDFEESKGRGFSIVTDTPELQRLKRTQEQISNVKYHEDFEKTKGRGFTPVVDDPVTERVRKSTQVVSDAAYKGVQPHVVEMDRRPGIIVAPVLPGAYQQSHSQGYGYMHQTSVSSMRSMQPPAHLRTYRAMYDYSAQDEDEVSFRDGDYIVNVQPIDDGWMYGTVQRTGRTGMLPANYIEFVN

[2] = biological target: His-paxillin (full-length) (UniProt P49023 1-591)
Chain of His-paxillin (full-length) (P49023 whole entry): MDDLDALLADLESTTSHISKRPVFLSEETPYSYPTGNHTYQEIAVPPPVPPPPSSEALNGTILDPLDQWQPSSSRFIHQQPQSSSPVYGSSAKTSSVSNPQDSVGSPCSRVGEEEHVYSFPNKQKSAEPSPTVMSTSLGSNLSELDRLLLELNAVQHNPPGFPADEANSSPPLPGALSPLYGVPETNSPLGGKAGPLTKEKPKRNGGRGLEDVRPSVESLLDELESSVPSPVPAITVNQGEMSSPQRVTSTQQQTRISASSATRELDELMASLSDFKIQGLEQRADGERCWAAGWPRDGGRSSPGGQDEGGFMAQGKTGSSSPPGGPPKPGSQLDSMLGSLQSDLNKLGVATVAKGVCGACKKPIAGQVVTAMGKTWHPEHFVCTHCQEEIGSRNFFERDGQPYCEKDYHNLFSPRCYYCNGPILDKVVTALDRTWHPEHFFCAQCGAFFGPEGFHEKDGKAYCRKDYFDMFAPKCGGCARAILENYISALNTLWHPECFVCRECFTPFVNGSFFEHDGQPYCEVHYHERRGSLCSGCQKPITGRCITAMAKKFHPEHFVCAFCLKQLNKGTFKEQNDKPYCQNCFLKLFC

His-lasp-2 (full-length) [3] = biological target: T1, His-lasp-2 (full-length); remark: listed apart in the source

- Kd (His-lasp-2 (full-length) [1]): ~140 nM
B1: His-vinculin-tail (amino acids 840-1066) (domain or fragment)
chain: PDFPPPPPDLEQLRLTDELAPPKPPLPEGEVPPPRPPPPEEKDEEFPEQKAGEVINQPMMMAARQLHDEARKWSSKGNDIIAAAKRMALLMAEMSRLVRGGSGTKRALIQCAKDIAKASDEVTRLAKEVAKQCTDKRIRTNLLQVCERIPTISTQLKILSTVKATMLGRTNISDEESEQATEMLVHNAQNLMQSVKETVREAEAASIKIRTDAGFTLRWVRKTPWYQ

- Kd [2]: ~20 nM
B2: GST-lasp-2 (full-length) (natural protein)
chain: MNPQCARCGKVVYPTEKVNCLDKYWHKGCFHCEVCKMALNMNNYKGYEKKPYCNAHYPKQSFTTVADTPENLRLKQQSELQSQVKYKRDFEESKGRGFSIVTDTPELQRLKRTQEQISNVKYHEDFEKTKGRGFTPVVDDPVTERVRKSTQVVSDAAYKGVQPHVVEMDRRPGIIVAPVLPGAYQQSHSQGYGYMHQTSVSSMRSMQPPAHLRTYRAMYDYSAQDEDEVSFRDGDYIVNVQPIDDGWMYGTVQRTGRTGMLPANYIEFVN

- Kd (His-lasp-2 (full-length) [3]): ~15 nM
B3: GST-lasp-1 (full-length) (natural protein)
chain: MNPNCARCGKIVYPTEKVNCLDKYWHKACFHCETCKMTLNMKNYKGYEKKPYCNAHYPKQSFTMVADTPENLRLKQQSELQSQVRYKEEFEKNKGKGFSVVADTPELQRIKKTQDQISNIKYHEEFEKSRMGPSGGEGVEPERREAQDSSSYRRPTEQQQPQPHHIPTSAPVYQQPQQQQMTSSYGGYKEPAAPVSIQRSAPGGGGKRYRAVYDYSAADEDEVSFQDGDTIVNVQQIDDGWMYGTVERTGDTGMLPANYVEAI
